Key:
[1] = target: T1, C-terminus-biotin labeled compound 1 (an N-terminus peptide of FGF-8) (human, C-terminus biotin label); assay: BIAcore 2000, biotin FGF-8 peptide on SA chip, antibody in solution, RU compared; dissociation hardly observed
T1 construct: also called FGF-8 peptide
T1 peptide: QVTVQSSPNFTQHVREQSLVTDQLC
Description: In order to examine the activity of various anti-FGF-8 CDR-grafted antibodies obtained in the item 5 of Example 5 to bind to FGF-8 in more detail, activities of various anti-FGF-8 CDR-grafted antibodies to bind to FGF-8 were measured and compared as follows by using BIAcore 2000 (manufactured by BIACORE). The CHO/DG44-derived anti-FGF-8 chimeric antibody KM3034 obtained in the item 3(1) of Example 3 was used as a positive control.
Hereinbelow, HBS-EP (manufactured by Pharmacia) was used as the buffer solution for dilution of samples and during the measurement. First, a sensor tip SA (manufactured by BIACORE) was set, and 5 μl of a C-terminus-biotin labeled compound 1 (an N-terminus peptide of FGF-8; SEQ ID NO:17) prepared to a solution of 0.05 μg/ml was added thereto at a flow rate of […]. Thereafter, the tip surface was washed by adding 5 μl of 10 mmol/l Glycine-HCl buffer (pH 1.5) continuously twice. Immobilized amount of the FGF-8 peptide was 35 RU.
To the FGF-8 peptide immobilized flow cell, 60 μl of each antibody solution was added at a flow rate of 20 μl/minute, and then the dissociation reaction was monitored for 3 minutes. After the dissociation reaction, the tip surface was regenerated by adding 20 μl of 10 mmol/l Glycine-HCl buffer (pH 1.5) continuously twice. This cycle was carried out for antibody solutions of various concentrations (50 to 1.85 μg/ml), and a sensorgram at each concentration was obtained. The sensorgram of each antibody was made into a sensorgram of specific reaction by subtracting a sensorgram obtained using a chimeric antibody KM871 for GD3 [Cancer Immunol. Immunother., 36, 373 (1993)] as a negative control.

[2] = target: T2, human FGF-8 partial peptide (Sequence ID NO:1) cross-linked with thyroglobulin (human, cross-linked to thyroglobulin (THY) with glutaraldehyde); assay: enzyme immunoassay, peptide-thyroglobulin conjugate coated on the plate
T2 construct: Coated on the plate as a thyroglobulin conjugate; also called THY-FGF-8 peptide antigen; FGF-8 peptide
T2 peptide: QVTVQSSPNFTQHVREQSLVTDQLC
Description: A conjugate obtained by cross-linking the human FGF-8 partial peptide shown in Sequence ID NO:1 with thyroglobulin in the following manner was used as the antigen for the assay. That is, 1 mg of the peptide was dissolved in 0.1 M ammonium acetate buffer and the solution was adjusted to 1 ml by adding 5 mg of THY which has been dissolved in advance in the same buffer. To this, while stirring, was added dropwise 540 μl of 0.02 M glutaraldehyde, followed by 5 hours of stirring at room temperature to effect the reaction. After the reaction, the reaction solution was dialyzed overnight against PBS and used as the antigen. A conjugate obtained in the same manner by cross-linking the peptide shown in Sequence ID NO:2 with THY was used as a reference antigen. […] After washing with Tween-PBS, a peroxidase-labeled rabbit anti-mouse immunoglobulin (manufactured by DAKO) was distributed in 50 μl portions into wells of the plate to carry out 1 hour of reaction at room temperature, the plate was again washed with Tween-PBS, and then color development was effected using an ABTS substrate [2,2-azinobis(3-ethylbenzothiazole-6-sulfonic acid)ammonium] solution and absorbance at OD₄₁₅ was measured (NJ 2001, Japan Intermed).

[3] = target: T3, BSA-compound 1 (Compound 1, human FGF-8 peptide, conjugated with bovine serum albumin) (human, conjugated to BSA through SMCC); assay: ELISA on BSA-compound 1
T3 peptide: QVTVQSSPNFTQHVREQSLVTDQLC
Description: (§1) The conjugate prepared in the above was dispensed at 50 μl/well into a 96 well plate for ELISA (manufactured by Greiner) at a concentration of 0.5 to 1.0 μg/ml and allowed to stand for adsorption overnight at 4° C. After washing with PBS, 1% BSA-containing PBS (BSA-PBS) was added at 100 μl/well and allowed for blocking of remaining active groups to react at room temperature for 1 hour. After washing each well with 0.05% Tween-containing PBS (Tween-PBS), culture supernatants of transformants or purified antibodies were added at 50 μl/well and allowed to react at room temperature for 1 hour. After the reaction, each well was washed with Tween-PBS and then a peroxidase-labeled goat anti-human IgG (H & L) antibody solution (manufactured by American Qualex) diluted 3,000 to 6,000-folds with BSA-PBS was added as a secondary antibody solution at 50 μl/well and allowed to react at room temperature for 1 hour. After the reaction and subsequent washing with Tween-PBS, an ABTS substrate solution [a solution prepared by dissolving 0.55 g of 2,2′-azinobis(3-ethylbenzothiazoline-6-sulfonic acid) ammonium in 1 L of 0.1 M citrate buffer (pH 4.2) and adding 1 μl/ml hydrogen peroxide just before use] was added at 50 μl/well for color development, and the reaction was stopped by adding 5% SDS solution at 50 μl/well. Thereafter, absorbance at 415 nm (OD415) was measured.
The activity of various anti-FGF-8 CDR-grafted antibodies obtained in the item 4 of Example 4 to bind to FGF-8 was measured by the ELISA described in the item 2(6) of Example 3. The YB2/0-derived anti-FGF-8 chimeric antibody KM3334 obtained in the item 3(2) of Example 3 was used as a positive control.

[4] = target: T3, BSA-compound 1 (Compound 1, human FGF-8 …); assay: ELISA on BSA-compound 1, positive control
Description: as §1, with “After the reaction and subsequent washing with Tween-PBS, an ABTS substrate solution [a solution prepared by dissolving 0.55 g of 2,2′-azinobis(3-ethylbenzothiazoline-6-sulfonic acid) ammonium in 1 L of 0.1 M citrate buffer (pH 4.2) and adding 1 μl/ml hydrogen peroxide just before use] was added at 50 μl/well for color development, and the reaction was stopped by adding 5% SDS solution at 50 μl/well.” left out
The activity of various anti-FGF-8 CDR-grafted antibodies obtained in the item 4 of Example 4 to bind to FGF-8 was measured by the ELISA described in the item 2(6) of Example 3. […]

[5] = target: T4, FGF-8 (manufactured by R&D) (UniProt P55075-3 23-215, limits assumed); assay: cell-based or functional assay
T4 sequence (looked up): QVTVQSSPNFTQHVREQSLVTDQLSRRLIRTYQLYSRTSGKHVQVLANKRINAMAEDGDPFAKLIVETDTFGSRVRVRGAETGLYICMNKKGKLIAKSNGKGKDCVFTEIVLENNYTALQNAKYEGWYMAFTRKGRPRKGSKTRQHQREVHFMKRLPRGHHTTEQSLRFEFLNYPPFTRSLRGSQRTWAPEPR

[6] = target: T1, C-terminus-biotin labeled compound 1 …; assay: BIAcore 2000, biotin FGF-8 peptide on SA chip, Example 6, RU compared; dissociation hardly observed

B1: anti-FGF-8 CDR-grafted antibody HV0LV3-1/CHO (antibody, V domains shown)
VH: QVQLVQSGAEVKKPGASVKVSCKASGYTFTDYYLNWVRQAPGQGLEWMGEIDPGSDSIYYNENLEGRVTITADTSTSTAYMELSSLRSEDTAVYYCARYGYSRYDVRFVYWGQGTLVTVSS
VL: DVVMTQSPLSLPVTPGEPASISCRSSQSLVHSNGRTYLEWYLQKPGQSPQVLIYKVSNRISGVPDRFSGSGSGTDFTLKISRVEAEDVGVYFCFQGSHVPYTFGQGTKVEIK
notes: HV.0 + LV.3-1, human gamma1/kappa constant regions, made in CHO/DG44 cells; also called KM8036; FERM BP-8083
[1]
  binding result: binds

B2: anti-FGF-8 monoclonal antibody KM 1334 (antibody, mouse IgG1, V domains shown)
VH: QVQLQQSGAEVARPGASVKLSCKASGYTFTDYYLNWVKQRSGQGLEWIGEIDPGSDSIYYNENLEGRATLTADKSSSTAYMQLNSLTSEDSAVYFCARYGYSRYDVRFVYWGQGTLVTVST
VL: DVLMTQTPLSLPVSLGDQASISCRSSQSLVHSNGRTYLEWYLQKPGQSPKVLIYKVSNRISGVPDRFSGSGSGTDFTLKISRVEAEDLGVYFCFQGSHVPYTFGGGTKLEIK
notes: Mouse IgG1, kappa L chain, purified from ascites; also called anti-FGF-8 mouse antibody KM1334; antibody of hybridoma FERM BP-5451
[2]
  binding result: binds

B3: anti-FGF-8 chimeric antibody KM3034 (antibody, V domains shown)
VH: QVQLQQSGAEVARPGASVKLSCKASGYTFTDYYLNWVKQRSGQGLEWIGEIDPGSDSIYYNENLEGRATLTADKSSSTAYMQLNSLTSEDSAVYFCARYGYSRYDVRFVYWGQGTLVTVST
VL: DVLMTQTPLSLPVSLGDQASISCRSSQSLVHSNGRTYLEWYLQKPGQSPKVLIYKVSNRISGVPDRFSGSGSGTDFTLKISRVEAEDLGVYFCFQGSHVPYTFGGGTKLEIK
notes: Human chimeric antibody, human gamma1 CH and kappa CL (vector pKANTEX93), made in CHO/DG44 cells; also called FERM BP-7836
[1]
  binding result: binds

B4: anti-FGF-8 CDR-grafted antibody HV0LV6 (YB2/0 cell-derived) (antibody, V domains shown)
VH: QVQLVQSGAEVKKPGASVKVSCKASGYTFTDYYLNWVRQAPGQGLEWMGEIDPGSDSIYYNENLEGRVTITADTSTSTAYMELSSLRSEDTAVYYCARYGYSRYDVRFVYWGQGTLVTVSS
VL: DVVMTQSPLSLPVSLGEPASISCRSSQSLVHSNGRTYLEWYLQKPGQSPKVLIYKVSNRISGVPDRFSGSGSGTDFTLKISRVEAEDVGVYFCFQGSHVPYTFGQGTKVEIK
notes: also called KM8037; FERM BP-8084
[3]
  binding result: binds

B5: anti-FGF-8 chimeric antibody KM3334 (antibody, V domains shown)
VH: QVQLQQSGAEVARPGASVKLSCKASGYTFTDYYLNWVKQRSGQGLEWIGEIDPGSDSIYYNENLEGRATLTADKSSSTAYMQLNSLTSEDSAVYFCARYGYSRYDVRFVYWGQGTLVTVST
VL: DVLMTQTPLSLPVSLGDQASISCRSSQSLVHSNGRTYLEWYLQKPGQSPKVLIYKVSNRISGVPDRFSGSGSGTDFTLKISRVEAEDLGVYFCFQGSHVPYTFGGGTKLEIK
[4]
  binding result: binds

B6: anti-FGF-8 CDR-grafted antibody HV0LV6/CHO (antibody, V domains shown)
VH: QVQLVQSGAEVKKPGASVKVSCKASGYTFTDYYLNWVRQAPGQGLEWMGEIDPGSDSIYYNENLEGRVTITADTSTSTAYMELSSLRSEDTAVYYCARYGYSRYDVRFVYWGQGTLVTVSS
VL: DVVMTQSPLSLPVSLGEPASISCRSSQSLVHSNGRTYLEWYLQKPGQSPKVLIYKVSNRISGVPDRFSGSGSGTDFTLKISRVEAEDVGVYFCFQGSHVPYTFGQGTKVEIK
notes: also called KM8034
[1]
  binding result: binds

B7: anti-FGF-8 CDR-grafted antibody HV0LV4-3/CHO (antibody, V domains shown)
VH: QVQLVQSGAEVKKPGASVKVSCKASGYTFTDYYLNWVRQAPGQGLEWMGEIDPGSDSIYYNENLEGRVTITADTSTSTAYMELSSLRSEDTAVYYCARYGYSRYDVRFVYWGQGTLVTVSS
VL: DIVMTQSPLSLPVSLGEPASISCRSSQSLVHSNGRTYLEWYLQKPGQSPQVLIYKVSNRISGVPDRFSGSGSGTDFTLKISRVEAEDVGVYFCFQGSHVPYTFGQGTKVEIK
notes: HV.0 + LV.4-3, human gamma1/kappa constant regions, made in CHO/DG44 cells; also called KM8035
[5]
  FGF-8 neutralization activity, FGF-8-dependent growth of SC-3 cells: ~0.5 fold of the activity of KM3034
[6]
  binding result: binds

B8: anti-FGF-8 CDR-grafted antibody HV6LV6 (YB2/0 cell-derived) (antibody, V domains shown)
VH: QVQLVQSGAEVARPGASVKVSCKASGYTFTDYYLNWVRQRSGQGLEWIGEIDPGSDSIYYNENLEGRVTITADTSTSTAYMELSSLRSEDTAVYFCARYGYSRYDVRFVYWGQGTLVTVSS
VL: DVVMTQSPLSLPVSLGEPASISCRSSQSLVHSNGRTYLEWYLQKPGQSPKVLIYKVSNRISGVPDRFSGSGSGTDFTLKISRVEAEDVGVYFCFQGSHVPYTFGQGTKVEIK
[3]
  binding result: binds

B9: anti-FGF-8 CDR-grafted antibody HV0LV3-3/CHO (antibody, V domains shown)
VH: QVQLVQSGAEVKKPGASVKVSCKASGYTFTDYYLNWVRQAPGQGLEWMGEIDPGSDSIYYNENLEGRVTITADTSTSTAYMELSSLRSEDTAVYYCARYGYSRYDVRFVYWGQGTLVTVSS
VL: DIVMTQSPLSLPVSLGEPASISCRSSQSLVHSNGRTYLEWYLQKPGQSPQVLIYKVSNRISGVPDRFSGSGSGTDFTLKISRVEAEDVGVYYCFQGSHVPYTFGQGTKVEIK
[5]
  FGF-8 neutralization activity, FGF-8-dependent growth of SC-3 cells: ~0.5 fold of the activity of KM3034

B10: anti-FGF-8 CDR-grafted antibody HV0LV0 (YB2/0 cell-derived) (antibody, V domains shown)
VH: QVQLVQSGAEVKKPGASVKVSCKASGYTFTDYYLNWVRQAPGQGLEWMGEIDPGSDSIYYNENLEGRVTITADTSTSTAYMELSSLRSEDTAVYYCARYGYSRYDVRFVYWGQGTLVTVSS
VL: DIVMTQSPLSLPVTPGEPASISCRSSQSLVHSNGRTYLEWYLQKPGQSPQLLIYKVSNRISGVPDRFSGSGSGTDFTLKISRVEAEDVGVYYCFQGSHVPYTFGQGTKVEIK
[3]
  binding result: binds

B11: anti-FGF-8 CDR-grafted antibody HV0LV0/CHO (antibody, V domains shown)
VH: QVQLVQSGAEVKKPGASVKVSCKASGYTFTDYYLNWVRQAPGQGLEWMGEIDPGSDSIYYNENLEGRVTITADTSTSTAYMELSSLRSEDTAVYYCARYGYSRYDVRFVYWGQGTLVTVSS
VL: DIVMTQSPLSLPVTPGEPASISCRSSQSLVHSNGRTYLEWYLQKPGQSPQLLIYKVSNRISGVPDRFSGSGSGTDFTLKISRVEAEDVGVYYCFQGSHVPYTFGQGTKVEIK
[1]
  binding result: binds
